{"source": "paper PMC11014985", "about": "“TCTP regulates genotoxic stress and tumorigenicity via intercellular vesicular signaling” (EMBO Reports, 2024)", "key": {"[1]": {"biological_target": "TCTP (translationally controlled tumor protein) (human) (UniProt P13693)", "sequence (P13693 whole entry)": "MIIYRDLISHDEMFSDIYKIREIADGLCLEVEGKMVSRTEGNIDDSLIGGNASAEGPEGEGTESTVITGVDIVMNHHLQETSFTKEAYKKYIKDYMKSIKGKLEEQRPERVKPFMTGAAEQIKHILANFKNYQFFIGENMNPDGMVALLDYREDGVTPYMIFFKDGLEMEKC", "test": "SPR; Biacore 2000; TCTP amine-coupled on CM5 chip (697 RU); DDX3 injected in two-fold dilutions 0.195 to 100 nM, 30 ul/min; HBS-EP (10 mM HEPES pH 7.2, 150 mM NaCl, 3 mM EDTA, 0.005% Tween 20); 25 C; global Langmuir binding with drifting baseline"}, "[2]": {"biological_target": "TCTP (translationally controlled tumor protein) (human) (UniProt P13693)", "test": "SPR; positive control for the SPR experiments; who was immobilised and the conditions are not told for TSAP6 (Appendix Fig. S2); also run with sertraline and thioridazine"}}}
{"substance": "DDX3 wild-type (from UniProt O00571 1-662)", "values": [{"measurement": "Kd", "setting": "[1]", "value": 68.9, "unit": "nM"}]}
{"substance": "TSAP6 (Tumor Suppressor Activated Protein) (from UniProt Q658P3 1-488) (natural protein)", "values": [{"measurement": "Kd", "setting": "[2]", "value": 1000, "unit": "nM"}]}
